{
  "source": "patent US9062100B2",
  "about": "“Anti-human TROP-2 antibody having anti-tumor activity in vivo” (LIVTECH, INC., dated 2015)",
  "binders": {"B1": {"name": "anti-hTROP-2 monoclonal antibody K5-116-2-1 (antibody, V domains shown)", "VH": "QVQLQQPGAELVRPGASVKLSCKASGYTFTSYWITWVKQRPGQGLEWIGNIYPSDSYTNYNQKFRDKATLTVDKSSSTAYMQLSSPTSEDSAVYYCSALFDYWGQGTTLTVSS", "VL": "DILLTQSPAILSVSPGERVSFSCRASQSIGTSIHWYQQRTNGSPRLLIKYASESISGIPSRFSGSGSGTDFILSINSVESEDIADYYCQQSNSWPFTFGSGTKLEIK"}},
  "key": {"[1]": {"target": "T1, recombinant protein of the extracellular region of hTROP-2 (human)", "T1 sequence": "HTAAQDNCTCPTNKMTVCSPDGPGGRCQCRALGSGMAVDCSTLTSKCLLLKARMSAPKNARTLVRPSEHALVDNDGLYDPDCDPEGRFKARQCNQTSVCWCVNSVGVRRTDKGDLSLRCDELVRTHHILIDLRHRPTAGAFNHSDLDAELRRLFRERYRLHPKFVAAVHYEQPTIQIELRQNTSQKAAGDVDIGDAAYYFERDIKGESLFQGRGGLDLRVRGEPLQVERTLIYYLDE", "experiment": "ELISA of free antibody after equilibration with antigen in solution"}, "human TROP-2 (hTROP-2) [2]": {"target": "T2, human TROP-2 (hTROP-2) (human)", "T2 chain": "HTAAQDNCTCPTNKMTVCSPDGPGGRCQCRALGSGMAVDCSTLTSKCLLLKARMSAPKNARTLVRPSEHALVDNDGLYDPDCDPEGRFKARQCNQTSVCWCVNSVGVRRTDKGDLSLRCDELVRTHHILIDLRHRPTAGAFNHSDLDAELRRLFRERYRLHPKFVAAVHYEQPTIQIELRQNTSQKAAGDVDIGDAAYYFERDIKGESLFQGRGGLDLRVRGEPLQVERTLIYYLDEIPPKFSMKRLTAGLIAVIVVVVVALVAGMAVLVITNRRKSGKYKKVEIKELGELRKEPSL", "experiment": "FACS on BxPC-3 cells"}, "human TROP-2 (hTROP-2) [3]": {"target": "T2, human TROP-2 (hTROP-2)", "experiment": "FACS on PK-59 cells"}, "Table 9 peptide No. 4": {"target": "T3, Table 9 peptide No. 4 (human, not fully specified)", "T3 peptide": "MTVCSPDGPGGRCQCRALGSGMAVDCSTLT", "experiment": "PEPSCAN CLIPS peptide ELISA"}, "Table 9 peptide No. 26": {"target": "Table 9 peptide No. 26 (human)", "sequence (peptide, as listed by the source)": "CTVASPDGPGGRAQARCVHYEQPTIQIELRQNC", "experiment": "PEPSCAN CLIPS peptide ELISA"}, "Table 9 peptide No. 2": {"target": "T4, Table 9 peptide No. 2 (human, not fully specified)", "T4 peptide": "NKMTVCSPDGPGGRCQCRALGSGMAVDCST", "experiment": "PEPSCAN CLIPS peptide ELISA"}, "Table 9 peptide No. 15": {"target": "T5, Table 9 peptide No. 15 (human, not fully specified)", "T5 peptide": "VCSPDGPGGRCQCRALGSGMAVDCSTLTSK", "experiment": "PEPSCAN CLIPS peptide ELISA"}, "Table 9 peptide No. 9": {"target": "T6, Table 9 peptide No. 9 (human, not fully specified; cysteine pairing not given here)", "T6 peptide": "CTHHILIDLRHRPTAGC", "experiment": "PEPSCAN CLIPS peptide ELISA"}, "Table 9 peptide No. 22": {"target": "T7, Table 9 peptide No. 22 (human, not fully specified)", "T7 peptide": "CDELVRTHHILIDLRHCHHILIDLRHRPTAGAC", "experiment": "PEPSCAN CLIPS peptide ELISA"}, "Table 9 peptide No. 6": {"target": "T8, Table 9 peptide No. 6 (human, not fully specified)", "T8 peptide": "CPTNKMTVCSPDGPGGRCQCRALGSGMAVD", "experiment": "PEPSCAN CLIPS peptide ELISA"}, "Table 9 peptide No. 11": {"target": "T9, Table 9 peptide No. 11 (human, not fully specified)", "T9 peptide": "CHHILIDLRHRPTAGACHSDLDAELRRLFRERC", "experiment": "PEPSCAN CLIPS peptide ELISA"}, "Table 9 peptide No. 16": {"target": "T10, Table 9 peptide No. 16 (human, not fully specified)", "T10 peptide": "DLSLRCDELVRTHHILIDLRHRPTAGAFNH", "experiment": "PEPSCAN CLIPS peptide ELISA"}, "Table 9 peptide No. 12": {"target": "T11, Table 9 peptide No. 12 (human, not fully specified)", "T11 peptide": "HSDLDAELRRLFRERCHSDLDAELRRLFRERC", "experiment": "PEPSCAN CLIPS peptide ELISA"}, "Table 9 peptide No. 13": {"target": "T12, Table 9 peptide No. 13 (human, not fully specified)", "T12 peptide": "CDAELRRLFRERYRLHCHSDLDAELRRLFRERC", "experiment": "PEPSCAN CLIPS peptide ELISA"}, "Table 9 peptide No. 14": {"target": "T13, Table 9 peptide No. 14 (human, not fully specified; cysteine pairing not given here)", "T13 peptide": "CDAELRRLFRERYRLHCPK", "experiment": "PEPSCAN CLIPS peptide ELISA"}, "Table 9 peptide No. 10": {"target": "T14, Table 9 peptide No. 10 (human, not fully specified)", "T14 peptide": "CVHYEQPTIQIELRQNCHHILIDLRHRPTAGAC", "experiment": "PEPSCAN CLIPS peptide ELISA"}, "Table 9 peptide No. 18": {"target": "T15, Table 9 peptide No. 18 (human, not fully specified; cysteine pairing not given here)", "T15 peptide": "CFQGRGGLDLRVRGEPC", "experiment": "PEPSCAN CLIPS peptide ELISA"}, "Table 9 peptide No. 23": {"target": "T16, Table 9 peptide No. 23 (human, not fully specified)", "T16 peptide": "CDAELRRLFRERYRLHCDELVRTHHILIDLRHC", "experiment": "PEPSCAN CLIPS peptide ELISA"}, "Table 9 peptide No. 3": {"target": "T17, Table 9 peptide No. 3 (human, not fully specified)", "T17 peptide": "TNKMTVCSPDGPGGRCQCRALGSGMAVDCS", "experiment": "PEPSCAN CLIPS peptide ELISA"}, "Table 9 peptide No. 1": {"target": "T18, Table 9 peptide No. 1 (human, not fully specified)", "T18 peptide": "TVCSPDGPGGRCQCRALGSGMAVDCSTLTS", "experiment": "PEPSCAN CLIPS peptide ELISA"}, "Table 9 peptide No. 8": {"target": "T19, Table 9 peptide No. 8 (human, not fully specified)", "T19 peptide": "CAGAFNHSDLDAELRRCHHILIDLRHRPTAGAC", "experiment": "PEPSCAN CLIPS peptide ELISA"}, "Table 9 peptide No. 7": {"target": "T20, Table 9 peptide No. 7 (human, not fully specified)", "T20 peptide": "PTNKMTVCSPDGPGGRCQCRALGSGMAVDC", "experiment": "PEPSCAN CLIPS peptide ELISA"}, "Table 9 peptide No. 29": {"target": "Table 9 peptide No. 29 (human)", "sequence (peptide, as listed by the source)": "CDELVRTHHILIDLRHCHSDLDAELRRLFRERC", "experiment": "PEPSCAN CLIPS peptide ELISA"}, "Table 9 peptide No. 20": {"target": "T21, Table 9 peptide No. 20 (human, not fully specified)", "T21 peptide": "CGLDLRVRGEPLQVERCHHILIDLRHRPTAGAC", "experiment": "PEPSCAN CLIPS peptide ELISA"}, "Table 9 peptide No. 17": {"target": "T22, Table 9 peptide No. 17 (human, not fully specified)", "T22 peptide": "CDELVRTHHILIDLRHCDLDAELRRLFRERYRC", "experiment": "PEPSCAN CLIPS peptide ELISA"}, "Table 9 peptide No. 28": {"target": "T23, Table 9 peptide No. 28 (human, not fully specified)", "T23 peptide": "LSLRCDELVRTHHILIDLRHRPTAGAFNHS", "experiment": "PEPSCAN CLIPS peptide ELISA"}, "Table 9 peptide No. 24": {"target": "T24, Table 9 peptide No. 24 (human, not fully specified)", "T24 peptide": "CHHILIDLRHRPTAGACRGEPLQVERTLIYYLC", "experiment": "PEPSCAN CLIPS peptide ELISA"}, "Table 9 peptide No. 21": {"target": "T25, Table 9 peptide No. 21 (human, not fully specified)", "T25 peptide": "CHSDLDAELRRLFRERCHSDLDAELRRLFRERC", "experiment": "PEPSCAN CLIPS peptide ELISA"}, "Table 9 peptide No. 27": {"target": "T26, Table 9 peptide No. 27 (human, not fully specified)", "T26 peptide": "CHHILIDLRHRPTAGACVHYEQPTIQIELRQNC", "experiment": "PEPSCAN CLIPS peptide ELISA"}, "Table 9 peptide No. 5": {"target": "T27, Table 9 peptide No. 5 (human, not fully specified)", "T27 peptide": "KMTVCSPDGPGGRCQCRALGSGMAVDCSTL", "experiment": "PEPSCAN CLIPS peptide ELISA"}, "Table 9 peptide No. 25": {"target": "T28, Table 9 peptide No. 25 (human, not fully specified; cysteine pairing not given here)", "T28 peptide": "CSPDGPGGRCQCRAL", "experiment": "PEPSCAN CLIPS peptide ELISA"}, "Table 9 peptide No. 19": {"target": "T29, Table 9 peptide No. 19 (human, not fully specified)", "T29 peptide": "T16 peptide", "experiment": "PEPSCAN CLIPS peptide ELISA"}},
  "note": "Where no end group is shown, it is not given here.",
  "data": [
    {"binder": "B1", "values": [
      {"measurement": "Kd", "setting": "[1]", "value": 26.9, "unit": "pM"},
      {"measurement": "mean fluorescence intensity, times that with PE-labeled anti-mouse IgG only", "setting": "human TROP-2 (hTROP-2) [2]", "value": 121, "unit": "times"},
      {"measurement": "mean fluorescence intensity, times that with PE-labeled anti-mouse IgG only", "setting": "human TROP-2 (hTROP-2) [3]", "value": 122, "unit": "times"},
      {"measurement": "binding of K5-116-2-1", "setting": "Table 9 peptide No. 4", "value": 2440},
      {"measurement": "binding of K5-116-2-1", "setting": "Table 9 peptide No. 26", "value": 1220},
      {"measurement": "binding of K5-116-2-1", "setting": "Table 9 peptide No. 2", "value": 2610},
      {"measurement": "binding of K5-116-2-1", "setting": "Table 9 peptide No. 15", "value": 1430},
      {"measurement": "binding of K5-116-2-1", "setting": "Table 9 peptide No. 9", "value": 1590},
      {"measurement": "binding of K5-116-2-1", "setting": "Table 9 peptide No. 22", "value": 1320},
      {"measurement": "binding of K5-116-2-1", "setting": "Table 9 peptide No. 6", "value": 2140},
      {"measurement": "binding of K5-116-2-1", "setting": "Table 9 peptide No. 11", "value": 1480},
      {"measurement": "binding of K5-116-2-1", "setting": "Table 9 peptide No. 16", "value": 1420},
      {"measurement": "binding of K5-116-2-1", "setting": "Table 9 peptide No. 12", "value": 1470},
      {"measurement": "binding of K5-116-2-1", "setting": "Table 9 peptide No. 13", "value": 1460},
      {"measurement": "binding of K5-116-2-1", "setting": "Table 9 peptide No. 14", "value": 1440},
      {"measurement": "binding of K5-116-2-1", "setting": "Table 9 peptide No. 10", "value": 1500},
      {"measurement": "binding of K5-116-2-1", "setting": "Table 9 peptide No. 18", "value": 1380},
      {"measurement": "binding of K5-116-2-1", "setting": "Table 9 peptide No. 23", "value": 1270},
      {"measurement": "binding of K5-116-2-1", "setting": "Table 9 peptide No. 3", "value": 2480},
      {"measurement": "binding of K5-116-2-1", "setting": "Table 9 peptide No. 1", "value": 2670},
      {"measurement": "binding of K5-116-2-1", "setting": "Table 9 peptide No. 8", "value": 1640},
      {"measurement": "binding of K5-116-2-1", "setting": "Table 9 peptide No. 7", "value": 1720},
      {"measurement": "binding of K5-116-2-1", "setting": "Table 9 peptide No. 29", "value": 1200},
      {"measurement": "binding of K5-116-2-1", "setting": "Table 9 peptide No. 20", "value": 1340},
      {"measurement": "binding of K5-116-2-1", "setting": "Table 9 peptide No. 17", "value": 1390},
      {"measurement": "binding of K5-116-2-1", "setting": "Table 9 peptide No. 28", "value": 1220},
      {"measurement": "binding of K5-116-2-1", "setting": "Table 9 peptide No. 24", "value": 1230},
      {"measurement": "binding of K5-116-2-1", "setting": "Table 9 peptide No. 21", "value": 1330},
      {"measurement": "binding of K5-116-2-1", "setting": "Table 9 peptide No. 27", "value": 1220},
      {"measurement": "binding of K5-116-2-1", "setting": "Table 9 peptide No. 5", "value": 2420},
      {"measurement": "binding of K5-116-2-1", "setting": "Table 9 peptide No. 25", "value": 1230},
      {"measurement": "binding of K5-116-2-1", "setting": "Table 9 peptide No. 19", "value": 1370}
    ]}
  ]
}
